Reference: article PMC9951844 (Nature Communications, 2023)

B1: YB13-217 (antibody, V domains shown)
V domain 1: QVQLVESGGGVVQPGKSLRLSCTASGFTFSSHSMHWVRQAPGKGLDWVAVISFDGTKNYFADSLKGRFSVSRDNSRNTLYLQMNSLRVEDTAVYYCAREEGGSRMYHYYYGMDVWGQGTTVTVSS
V domain 2: QSVLTQPPSASGTPGQRVTISCSGSSSNIGTNTVNWYQQLPGTAPKLLIYTNNQRPSGVPDRFSGSKSGTSASLAIGGLQSEDEADYYCAAWDDSVSSYVFGTGTQVTAL
B2: YB12-197 (antibody, V domains shown)
VH: EVQLVESGGGLVQPGGSLRLSCAASGFTVSSNYMNWVRQAPGKGLEWVSVIYSGGSTFYADSVKGRFTISRDNSKNTLYLQMNSLRAEDTAVYYCARDAYNYGANWGQGTLVTVSS
VL: HLVLTQSPSASASLGASVKLTCTLSSGHSNNAIAWHQQQPEKGPRYLMHLNSDGSHTKGDGIPDRFSGSSSGAERYLTISSLQSEDEAEYYCQTWGTDIHWVFGGGTKLTVR
B3: YB12-269 (antibody, V domains shown)
VH: EVQLVESGGALVRPGGSLRVSCAASGITVNFNYMTWVRQGPGKGLEWVASIYPGGSTFYADSVKGRFTISRDNSKNTLYLQMTSVRDEDTALYYCARDEGPGMDVWGQGTTVTVSS
VL: QSVLTQPPSVSGAPGQRVTISCTGYSSNIEAGSDVHWYQQPPGTAPKLLIYNNNNRPSGVPDRFSGSKSGTSASLAITGLQPGDEGDYYCQSYDSRLSGYVFGTGTKVTVL
B4: YB13-208 (antibody, V domains shown)
V domain 1: QITLKESGPTLVKPTQTLTLTCTFSGLSLSTSGVSVGWIRQPPGKAPEWLALIYWDDDKRYSPSLTSRLSITKDTSKNQVVLTMTNMDPVDTATYYCAHPRYYGDSSGYYWIWGQGTMVTVSS
V domain 2: SYELTQPPSVSVSPGQTARITCSGDALPKQYAYWYQQKPGQAPVVVMYKTSERPSGIPERFSGSSSGTTVTLTISGVQAEDEADYYCQSADSSGFYVFGTGTQVTVL
B5: YB12-267 (antibody, V domains shown)
VH: KVQLVESGGGLIQPGGSLRLSCAASGLTVSSNYMNWVRQAPGKGLEWVSLIFSGGSTYYADSVKGRFTISRDYSKNTLYLQMNSLRAEDTAVYYCARDLMEVGGMDVWGQGTTVTVSS
VL: QSVLTQPPSASGTPGQRVTISCSGSSSYIGSIYWYQQLPGAAPKLLVFSDHKRPSGVPDRFSGSKSGTSASLAISGLQSEDEAGYYCATWDDSLNGYVFGTGTKVTVL
B6: YB13-216 (antibody, V domains shown)
VH: QVQLVESGGGVVQPGSSLRISCAASGFTFSSYGMHWVRQGPGKGLEWVAVIWDDGSGKHYAVSVKGRFTISRDNSKNTLYLQMNSLRVEDTAVYYCARDEGTTVTFFDYWGQGTLVTVSS
VL: DIQMTQSPSSLSASVGDRITITCRASQSIRTYLNWYQQKPGKAPKLLIYTSSSLQSGVPSRFSGSGSGTDFTLTISSLQPEDFATYFCQQSYSTPPWTFGQGTKVEIK
B7: YB9-120 (antibody, V domains shown)
VH: QVQLQESGPGLVKPSGTLSLTCAVSGGSIRTTKWWSWVRQPPGKGLEWIGEIHHGGNTNYNPSLKSRVTISVDKSKNQFSLKLTSVTAADTAVYYCARDGGGVGTPLEYWGQGTLVTVSS
VL: QSGLTQPASVSGSPGQSITISCTGTISDVGAYNYVSWYQQHPGRAPKVVIYDVSERPSGTSNRFSGSKSGNTASLTISGLQAEDEADYYCSSFTNTTPVVFGGGTKLTVL
B8: YB13-281 (antibody, V domains shown)
VH: EVQLVESGGGLVKPGGSLRLSCAASGFTFSSYSMNWVRQAPGKGLEWVSSISSSSSYIHYADSVKGRFTISRDNAKNSLYLQMNSLRAEDTAVYYCARVSSKDYYDRSGYLRGDYDYGMDVWGQGTTVTVSS
VL: QSVLTQPPSVSGAPGQRVTISCTGNSSNIGAAYDVHWYQQLPGTAPKLLIYGNSNRPSGVPDRFSGSKSGTSASLAITGLQAEDEADYYCQSYDSSLSGVFGGGTKLTVL

What follows are binders tested against SARS-CoV-2 Beta (B.1.351) S1 (SARS-CoV-2 Beta (B.1.351), strain).
B1: binds. B2: binds. B3: binds. B4: binds. B5: binds. B6: binds. B7: binds. B8: binds.

What follows are binders tested against S-R/Wildtype spike (SARS-CoV-2 hCoV-19/Wuhan/WIV04/2019, UniProt P0DTC2, stabilised).
B2: binds. B4: binds. B7: binds. B8: binds.

What follows are binders tested against Delta spike (based on S-R/Wildtype spike) (SARS-CoV-2 Delta (B.1.617.2), L452R | T478K).
B2: binds. B4: binds. B7: binds. B8: binds.

These binders were tested against SARS-CoV-2 Kappa (B.1.617.1) spike ECD (SARS-CoV-2 Kappa (B.1.617.1), strain).
B1: binds. B2: binds. B3: binds. B4: binds. B5: binds. B6: binds. B7: binds. B8: binds.

These binders were tested against SARS-CoV-2 Gamma (P.1) S1 (SARS-CoV-2 Gamma (P.1), strain).
B1: binds. B2: binds. B3: binds. B4: binds. B5: binds. B6: binds. B7: binds. B8: binds.

Each binder was assayed against SARS-CoV-2 Lambda (C.37) RBD (SARS-CoV-2 Lambda (C.37), strain).
B1: binds. B2: binds. B3: binds. B4: binds. B5: binds. B6: binds. B7: binds. B8: binds.

What follows are binders tested against Omicron BA.1 spike (based on S-R/Wildtype spike) (SARS-CoV-2 Omicron BA.1 (B.1.1.529), S371L | S373P | S375F | K417N).
B2: binds. B4: binds. B7: binds. B8: binds.

These binders were tested against SARS-CoV-2 Delta (B.1.617.2) S1 (SARS-CoV-2 Delta (B.1.617.2), strain).
B1: binds. B2: binds. B3: binds. B4: binds. B5: binds. B6: binds. B7: binds. B8: binds.

These binders were tested against SARS-CoV-2 wildtype S1 (SARS-CoV-2 wildtype (Wuhan), UniProt P0DTC2).
B1: binds. B2: binds. B3: binds. B4: binds. B5: binds. B6: binds. B7: binds. B8: binds.

Each binder was assayed against SARS-CoV-2 Omicron BA.1 (B.1.1.529) RBD (SARS-CoV-2 Omicron BA.1 (B.1.1.529), strain).
B1: binds. B2: binds. B3: binds. B5: binds. B6: binds. B7: binds. B8: binds.
